Legend:
[1] = biological target: T1, cynomolgus EREG (Biacore analyte) (cynomolgus monkey, UniProt O14944 63-108 (human entry), limits assumed); test: SPR (Biacore T100), antibody captured on Protein A, EREG as analyte; KD for monkey EREG over KD for human EREG
T1 construct: also called cynomolgus monkey EREG; cEREG
Method: (§1) The affinity and association rate constant of an anti-EREG antibody for an antigen were measured by the single-cycle kinetics method of surface plasmon resonance assay using Biacore™-T100 (GE Healthcare Japan). HBS-EP+ (GE Healthcare Japan) was used for the running buffer, and an amine coupling kit (GE Healthcare Japan) was used to covalently bond Protein A to the CM5 chip (carboxymethyl dextran-coated chip). Each anti-EREG antibody was prepared so that approximately 350 RU will be captured by Protein A. Human EREG or cynomolgus EREG used as the analyte was prepared at 0, 0.7, 1.4, 2.8, 5.6, and 11.2 nM using HBS-EP+. Measurement was carried out by first allowing Protein A to capture the antibody solution, and then at a flow rate of 30 μL/min, successively injecting each of the 0, 0.7, 1.4, 2.8, 5.6, and 11.2 nM human EREG or cynomolgus EREG solutions for three minutes to allow reaction to take place. Then, the solution was switched to HBS-EP+, and the dissociation phase was measured for 15 minutes. After completion of the dissociation phase measurement, the sensor chip was washed with 25 mM NaOH and regenerated. The measurement at zero concentration was similarly carried out by allowing Protein A to capture the antibody solution, and performing three-minute HBS-EP+ injections successively for five times to allow reaction to take place, and then switching to HBS-EP+ to measure the dissociation phase for 15 minutes. After completion of the dissociation phase measurement, the sensor chip was washed with 25 mM NaOH and regenerated. A data analysis software exclusively for Biacore, Biacore T100 Evaluation Software Version 2.0.1, was used to perform kinetic analyses to calculate the association rate constant (kₐ), dissociation rate constant (kd), and the rate constant ratio from the obtained sensorgrams. To correct for the day-to-day differences in the measurement values, FIGS. 1 to 4 and Tables 16 and 19 show ratios based on taking the value of the control sample (cH-G1/cL-k) measured on the same day as 1.

[2] = biological target: T1, cynomolgus EREG (Biacore analyte); test: SPR (Biacore T100); KD for monkey EREG over KD for human EREG
Method: as §1

[3] = biological target: T1, cynomolgus EREG (Biacore analyte); test: SPR (Biacore T100), antibody captured on Protein A, EREG as analyte, single-cycle kinetics
Method: as §1

[4] = biological target: T2, Human EREG (Biacore analyte) (human, UniProt O14944 63-108); test: as above
T2 construct: also called hEREG; human epiregulin
T2 sequence (O14944 63-108 limits assumed): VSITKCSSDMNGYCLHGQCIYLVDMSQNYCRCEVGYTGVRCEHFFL
Method: as §1

T1 sequence (O14944 other isoform, or with tags, fused parts or gaps limits assumed): as the sequence (O14944 63-108 limits assumed) above, with S7N, F45Y counted along it

Binder	cEREG KD (nM)/hEREG KD (nM) [1] [ratio]	also measured
H111-G1d/L47-k (antibody, human IgG1, kappa, V domains shown) VH: QDQLVQSGAEVKKPGASVKVSCKASGFNIKDTYIQWVRQAPGQGLEWMGRIDPLRGNTKYREKFEGRVTITADTSTNTAYMELSSLRSEDTAVYYCVRSGTLFDFWGQGTLVTVSS VL: DIQMTQSPSSLSASVGDRVTITCKASQDIHKYIAWYQQKPGQAPRLLIQYTSTLQPGVPSRFSGSGSGTDYTFTISSLQPEDIATYYCLQYDRLRTFGGGTKVEIKR	12.6	–
H116-G1d/LB-k (antibody, human IgG1, kappa, V domains shown) VH: QDQLVQSGAEVKKPGASVKVSCKASGFNIKDTYIQWVRQAPGQGLEWMGRIDPLRRNTKYREKFEGRVTITADTSTNTAYMELSSLRSEDTAVYYCVRSGTLFDFWGQGTLVTVSS VL: DIQMTQSPSSLSASVGDRVTITCKASQDIHKYIAWYQQKPGQAPRLLIQYTSTLQPGVPSRFSGSGSGTDYTFTISSLQPEDIATYYCLQYDNLRTFGGGTKVEIKR	6.1	–
H205-G1d/L73-k (antibody, human IgG1, kappa) heavy: not shown light: DIQMTQSPSSLSASVGDRVTITCRASQDIHKYIAWYQQKPGQAPRLLIQYTSTLQPGVPSRFSGSGSGTDYTFTISSLQPEDIATYYCLQYEQLRTFGGGTKVEIKRTVAAPSVFIFPPSDEQLKSGTASVVCLLNNFYPREAKVQWKVDNALQSGNSQESVTEQDSKDSTYSLSSTLTLSKADYEKHKVYACEVTHQGLSSPVTKSFNRGEC	–	cEREG (nM)/hEREG (nM) [2]: 3.1 ratio; Kd [3]: 0.69 nM; koff [3]: 0.00026 s⁻¹; kon [3]: 370000 M⁻¹ s⁻¹; Kd [4]: 0.19 nM; koff [4]: 7.5e-05 s⁻¹; kon [4]: 390000 M⁻¹ s⁻¹
H111-G1d/LB-k (antibody, human IgG1, kappa, V domains shown) VH: QDQLVQSGAEVKKPGASVKVSCKASGFNIKDTYIQWVRQAPGQGLEWMGRIDPLRGNTKYREKFEGRVTITADTSTNTAYMELSSLRSEDTAVYYCVRSGTLFDFWGQGTLVTVSS VL: DIQMTQSPSSLSASVGDRVTITCKASQDIHKYIAWYQQKPGQAPRLLIQYTSTLQPGVPSRFSGSGSGTDYTFTISSLQPEDIATYYCLQYDNLRTFGGGTKVEIKR	9	–
H119-G1d/LB-k (antibody, human IgG1, kappa, V domains shown) VH: QDQLVQSGAEVKKPGASVKVSCKASGFNIKDTYIQWVRQAPGQGLEWMGRIDPLRGNTRYREKFEGRVTITADTSTNTAYMELSSLRSEDTAVYYCVRSGTLFDFWGQGTLVTVSS VL: DIQMTQSPSSLSASVGDRVTITCKASQDIHKYIAWYQQKPGQAPRLLIQYTSTLQPGVPSRFSGSGSGTDYTFTISSLQPEDIATYYCLQYDNLRTFGGGTKVEIKR	9.8	–
H118-G1d/LB-k (antibody, human IgG1, kappa, V domains shown) VH: QDQLVQSGAEVKKPGASVKVSCKASGFNIKDTYIQWVRQAPGQGLEWMGRIDPLRGNRKYREKFEGRVTITADTSTNTAYMELSSLRSEDTAVYYCVRSGTLFDFWGQGTLVTVSS VL: DIQMTQSPSSLSASVGDRVTITCKASQDIHKYIAWYQQKPGQAPRLLIQYTSTLQPGVPSRFSGSGSGTDYTFTISSLQPEDIATYYCLQYDNLRTFGGGTKVEIKR	7.5	–
H112-G1d/LB-k (antibody, human IgG1, kappa, V domains shown) VH: QDQLVQSGAEVKKPGASVKVSCKASGFNIKDTYIQWVRQAPGQGLEWMGRRDPLRGNTKYREKFEGRVTITADTSTNTAYMELSSLRSEDTAVYYCVRSGTLFDFWGQGTLVTVSS VL: DIQMTQSPSSLSASVGDRVTITCKASQDIHKYIAWYQQKPGQAPRLLIQYTSTLQPGVPSRFSGSGSGTDYTFTISSLQPEDIATYYCLQYDNLRTFGGGTKVEIKR	16	–
H133-G1d/LB-k (antibody, human IgG1, kappa, V domains shown) VH: QDQLVQSGAEVKKPGASVKVSCKASGFNIKDTYIQWVRQAPGQGLEWMGRIDPLRRNTKYREKFEGRVTITADTSTNTAYMELSSLRSEDTAVYYCVRSGTRFDFWGQGTLVTVSS VL: DIQMTQSPSSLSASVGDRVTITCKASQDIHKYIAWYQQKPGQAPRLLIQYTSTLQPGVPSRFSGSGSGTDYTFTISSLQPEDIATYYCLQYDNLRTFGGGTKVEIKR	6.1	–
H120-G1d/LB-k (antibody, human IgG1, kappa, V domains shown) VH: QDQLVQSGAEVKKPGASVKVSCKASGFNIKDTYIQWVRQAPGQGLEWMGRIDPLRGNTKRREKFEGRVTITADTSTNTAYMELSSLRSEDTAVYYCVRSGTLFDFWGQGTLVTVSS VL: DIQMTQSPSSLSASVGDRVTITCKASQDIHKYIAWYQQKPGQAPRLLIQYTSTLQPGVPSRFSGSGSGTDYTFTISSLQPEDIATYYCLQYDNLRTFGGGTKVEIKR	9.1	–
H124-G1d/LB-k (antibody, human IgG1, kappa, V domains shown) VH: QDQLVQSGAEVKKPGASVKVSCKASGFNIKDTRIQWVRQAPGQGLEWMGRIDPLRGNTKYREKFEGRVTITADTSTNTAYMELSSLRSEDTAVYYCVRSGTLFDFWGQGTLVTVSS VL: DIQMTQSPSSLSASVGDRVTITCKASQDIHKYIAWYQQKPGQAPRLLIQYTSTLQPGVPSRFSGSGSGTDYTFTISSLQPEDIATYYCLQYDNLRTFGGGTKVEIKR	20.6	–
H117-G1d/LB-k (antibody, human IgG1, kappa, V domains shown) VH: QDQLVQSGAEVKKPGASVKVSCKASGFNIKDTYIQWVRQAPGQGLEWMGRIDPLRGRTKYREKFEGRVTITADTSTNTAYMELSSLRSEDTAVYYCVRSGTLFDFWGQGTLVTVSS VL: DIQMTQSPSSLSASVGDRVTITCKASQDIHKYIAWYQQKPGQAPRLLIQYTSTLQPGVPSRFSGSGSGTDYTFTISSLQPEDIATYYCLQYDNLRTFGGGTKVEIKR	7.9	–
H111-G1d/L48-k (antibody, human IgG1, kappa, V domains shown) VH: QDQLVQSGAEVKKPGASVKVSCKASGFNIKDTYIQWVRQAPGQGLEWMGRIDPLRGNTKYREKFEGRVTITADTSTNTAYMELSSLRSEDTAVYYCVRSGTLFDFWGQGTLVTVSS VL: DIQMTQSPSSLSASVGDRVTITCKASQDIHKYIAWYQQKPGQAPRLLIQYTSTLQPGVPSRFSGSGSGTDYTFTISSLQPEDIATYYCLQYDNRRTFGGGTKVEIKR	8.4	–
H131-G1d/LB-k (antibody, human IgG1, kappa, V domains shown) VH: QDQLVQSGAEVKKPGASVKVSCKASGFNIKDTYIQWVRQAPGQGLEWMGRIDPLRRNTKYREKFEGRVTITADTSTNTAYMELSSLRSEDTAVYYCVRSRTLFDFWGQGTLVTVSS VL: DIQMTQSPSSLSASVGDRVTITCKASQDIHKYIAWYQQKPGQAPRLLIQYTSTLQPGVPSRFSGSGSGTDYTFTISSLQPEDIATYYCLQYDNLRTFGGGTKVEIKR	4.7	–
H132-G1d/LB-k (antibody, human IgG1, kappa, V domains shown) VH: QDQLVQSGAEVKKPGASVKVSCKASGFNIKDTYIQWVRQAPGQGLEWMGRIDPLRRNTKYREKFEGRVTITADTSTNTAYMELSSLRSEDTAVYYCVRSGRLFDFWGQGTLVTVSS VL: DIQMTQSPSSLSASVGDRVTITCKASQDIHKYIAWYQQKPGQAPRLLIQYTSTLQPGVPSRFSGSGSGTDYTFTISSLQPEDIATYYCLQYDNLRTFGGGTKVEIKR	4.6	–
H123-G1d/LB-k (antibody, human IgG1, kappa, V domains shown) VH: QDQLVQSGAEVKKPGASVKVSCKASGFNIKDTYIQWVRQAPGQGLEWMGRIDPLRGNTKYREKFERRVTITADTSTNTAYMELSSLRSEDTAVYYCVRSGTLFDFWGQGTLVTVSS VL: DIQMTQSPSSLSASVGDRVTITCKASQDIHKYIAWYQQKPGQAPRLLIQYTSTLQPGVPSRFSGSGSGTDYTFTISSLQPEDIATYYCLQYDNLRTFGGGTKVEIKR	8.2	–
H121-G1d/LB-k (antibody, human IgG1, kappa, V domains shown) VH: QDQLVQSGAEVKKPGASVKVSCKASGFNIKDTYIQWVRQAPGQGLEWMGRIDPLRGNTKYRERFEGRVTITADTSTNTAYMELSSLRSEDTAVYYCVRSGTLFDFWGQGTLVTVSS VL: DIQMTQSPSSLSASVGDRVTITCKASQDIHKYIAWYQQKPGQAPRLLIQYTSTLQPGVPSRFSGSGSGTDYTFTISSLQPEDIATYYCLQYDNLRTFGGGTKVEIKR	8.3	–

— patent US20160159919A1 (Chugai, published 2016)
